Tests used:
FEN1 WT (Homo sapiens) [1] = test: smFRET; conditions: smFRET reaction buffer with CaCl2 (binding) or MgCl2 (cleavage), SPR in same buffer with CaCl2, no oxygen scavenger, salt, pH and temperature not given in the …; for Kd: Ca2+, Kd-bending
FEN1 WT (Homo sapiens) [2] = test: smFRET dwell-time kinetics; conditions: smFRET reaction buffer with CaCl2 (binding) or MgCl2 (cleavage); SPR in same buffer with CaCl2, no oxygen scavenger; salt, pH and temperature not given in the …

Substance | Kd (FEN1 WT (Homo sapiens) [2]) | Kd (FEN1 WT (Homo sapiens) [1]) | also measured
DF-7,1mismatch(1nt) | – | – | binding signal (fold Kd-bending increase vs DF-6,1) (FEN1 WT (Homo sapiens) [1]): 7
EQ DF-6,1Flap | 3.2 nM | – | –
NonEQ DF-6,1Flap | – | 3.9 nM | –
NonEQ DF-6,1dsDNA | – | 4.6 nM | –
SF-6,0Flap | 166 nM | – | –
